Experimental data taken from US20080009025.

How the values were obtained:
[1] = molecular target: PDKtide (39 amino acid polypeptide, T308tide fused to PIFtide)
[2] = molecular target: T1, T308tide
T1 chain: KTFCGTPEYLAPEV

[3] = molecular target: T2, D978A-PIFtide
T2 chain: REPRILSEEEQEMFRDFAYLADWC

[4] = molecular target: GST-PKBα[S473D] (full length), P31749
[5] = molecular target: T3, PIFtide (24 residue synthetic peptide encompassing the PDK1 binding site on PIF)
T3 chain: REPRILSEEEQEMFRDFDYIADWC

[6] = substrate: PIF peptide with Asp978 changed to phosphoserine
[7] = molecular target: GST-PKBα (full length), P31749
Sequence of GST-PKBα (full length), P31749 (P31749 whole entry, looked up): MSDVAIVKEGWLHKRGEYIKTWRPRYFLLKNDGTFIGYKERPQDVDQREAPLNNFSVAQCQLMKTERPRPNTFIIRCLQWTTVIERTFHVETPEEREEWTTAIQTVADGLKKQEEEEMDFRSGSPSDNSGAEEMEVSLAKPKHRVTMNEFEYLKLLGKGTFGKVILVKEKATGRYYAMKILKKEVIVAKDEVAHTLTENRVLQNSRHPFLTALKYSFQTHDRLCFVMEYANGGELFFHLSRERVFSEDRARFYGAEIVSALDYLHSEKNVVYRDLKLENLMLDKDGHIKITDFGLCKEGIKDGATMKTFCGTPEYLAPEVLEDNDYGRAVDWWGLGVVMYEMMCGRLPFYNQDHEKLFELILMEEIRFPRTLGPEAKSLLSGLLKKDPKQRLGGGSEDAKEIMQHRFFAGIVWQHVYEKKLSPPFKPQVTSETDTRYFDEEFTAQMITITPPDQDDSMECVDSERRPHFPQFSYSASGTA

[8] = molecular target: GST-SGK1 (lacking the N-terminal 60 amino acids), O00141
Sequence of GST-SGK1 (lacking the N-terminal 60 amino acids), O00141 (O00141 whole entry, looked up): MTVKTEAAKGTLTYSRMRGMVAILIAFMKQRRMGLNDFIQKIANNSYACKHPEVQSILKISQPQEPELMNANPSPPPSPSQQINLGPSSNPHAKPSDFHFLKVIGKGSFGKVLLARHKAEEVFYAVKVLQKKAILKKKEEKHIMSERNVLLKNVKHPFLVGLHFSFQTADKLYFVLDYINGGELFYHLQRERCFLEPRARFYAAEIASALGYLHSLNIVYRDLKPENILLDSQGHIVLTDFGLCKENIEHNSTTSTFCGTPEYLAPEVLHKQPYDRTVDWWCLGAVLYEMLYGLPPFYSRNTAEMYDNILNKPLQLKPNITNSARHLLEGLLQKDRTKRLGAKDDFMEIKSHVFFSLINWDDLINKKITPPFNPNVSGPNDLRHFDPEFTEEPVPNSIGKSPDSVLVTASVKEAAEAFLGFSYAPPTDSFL

[9] = molecular target: His-p70 S6K-T2 (p70 S6K with N-terminal His tag lacking the carboxy terminal 104 residues), P23443
Sequence of His-p70 S6K-T2 (p70 S6K with N-terminal His tag lacking the carboxy terminal 104 residues), P23443 (P23443 whole entry, looked up): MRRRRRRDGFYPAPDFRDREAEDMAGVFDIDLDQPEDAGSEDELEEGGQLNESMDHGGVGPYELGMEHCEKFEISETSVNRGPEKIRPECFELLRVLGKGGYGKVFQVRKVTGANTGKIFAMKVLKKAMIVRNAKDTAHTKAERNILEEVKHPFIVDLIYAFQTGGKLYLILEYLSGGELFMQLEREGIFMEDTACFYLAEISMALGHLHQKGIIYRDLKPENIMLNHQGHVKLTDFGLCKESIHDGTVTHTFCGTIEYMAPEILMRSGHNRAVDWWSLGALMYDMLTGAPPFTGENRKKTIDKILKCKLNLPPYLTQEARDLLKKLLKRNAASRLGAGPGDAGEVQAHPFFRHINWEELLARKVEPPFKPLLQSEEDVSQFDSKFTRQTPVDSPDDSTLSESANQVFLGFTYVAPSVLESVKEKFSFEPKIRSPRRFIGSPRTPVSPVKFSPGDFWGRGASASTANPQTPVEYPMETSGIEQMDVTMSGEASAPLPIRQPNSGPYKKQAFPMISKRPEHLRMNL

[10] = molecular target: GST-SGK1[T422D] (lacking the N-terminal 60 amino acids), O00141
Sequence of GST-SGK1[T422D] (lacking the N-terminal 60 amino acids), O00141 (O00141 whole entry, looked up, stated change not applied): as the sequence (O00141 whole entry, looked up) above

[11] = molecular target: His-412E-p70 S6K-T2, P23443
Sequence of His-412E-p70 S6K-T2, P23443 (P23443 whole entry, looked up): as the sequence (P23443 whole entry, looked up) above

[12] = molecular target: GST-PKBα[F472A] (full length), P31749
Sequence of GST-PKBα[F472A] (full length), P31749 (P31749 whole entry F472A, looked up): as the sequence (P31749 whole entry, looked up) above, with F472A counted along it

[13] = molecular target: GST-ΔPH-PKBα[S473D], P31749
Sequence of GST-ΔPH-PKBα[S473D], P31749 (P31749 whole entry S473D, looked up): as the sequence (P31749 whole entry, looked up) above, with S473D counted along it

[14] = molecular target: GST-D978A-PIF
[15] = molecular target: GST-ΔPH-PKBα, P31749
Sequence of GST-ΔPH-PKBα, P31749 (P31749 whole entry, looked up, stated change not applied): as the sequence (P31749 whole entry, looked up) above

Sequence of GST-PKBα[S473D] (full length), P31749 (P31749 whole entry S473D, looked up): as the sequence (P31749 whole entry, looked up) above, with S473D counted along it

B1: His-PDK1 (PDK1 residues 52-556 with an N-terminal hexahistidine tag) (protein)
chain: HHHHHHDGTAAEPRPGAGSLQHAQPPPQPRKKRPEDFKFGKILGEGSFSTVVLARELATSREYAIKILEKRHIIKENKVPYVTRERDVMSRLDHPFFVKLYFTFQDDEKLYFGLSYAKNGELLKYIRKIGSFDETCTRFYTAEIVSALEYLHGKGIIHRDLKPENILLNEDMHIQITDFGTAKVLSPESKQARANSFVGTAQYVSPELLTEKSACKSSDLWALGCIIYQLVAGLPPFRAGNEYLIFQKIIKLEYDFPEKFFPKARDLVEKLLVLDATKRLGCEEMEGYGPLKAHPFFESVTWENLHQQTPPKLTAYLPAMSEDDEDCYGNYDNLLSQFGCMQVSSSSSSHSLSASDTGLPQRSGSNIEQYIHDLDSNSFELDLQFSEDEKRLLLEKQAGGNPWHQFVENNLILKMGPVDKRKGLFARRRQLLLTEGPHLYYVDPVNKVLKGEIPWSQELRPEAKNFKTFFVHTPNRTYYLMDPSGNAHKWCRKIQEVWRQRYQSHPDAAVQ
With B1 the “rate of phosphorylation at 100 µM, against T308tide” value [1] was “PDKtide was phosphorylated at a rate over 100-fold greater than that using T308tide” and the “Km of PDK1 for the peptide substrate” value [2] was “compared to >10 mM for T308tide”.

B2: GST-PDK1 wild type (full length PDK1, residues 1-556, N-terminal GST) (protein)
chain: MARTTSQLYDAVPIQSSVVLCSCPSPSMVRTQTESSTPPGIPGGSRQGPAMDGTAAEPRPGAGSLQHAQPPPQPRKKRPEDFKFGKILGEGSFSTVVLARELATSREYAIKILEKRHIIKENKVPYVTRERDVMSRLDHPFFVKLYFTFQDDEKLYFGLSYAKNGELLKYIRKIGSFDETCTRFYTAEIVSALEYLHGKGIIHRDLKPENILLNEDMHIQITDFGTAKVLSPESKQARANSFVGTAQYVSPELLTEKSACKSSDLWALGCIIYQLVAGLPPFRAGNEYLIFQKIIKLEYDFPEKFFPKARDLVEKLLVLDATKRLGCEEMEGYGPLKAHPFFESVTWENLHQQTPPKLTAYLPAMSEDDEDCYGNYDNLLSQFGCMQVSSSSSSHSLSASDTGLPQRSGSNIEQYIHDLDSNSFELDLQFSEDEKRLLLEKQAGGNPWHQFVENNLILKMGPVDKRKGLFARRRQLLLTEGPHLYYVDPVNKVLKGEIPWSQELRPEAKNFKTFFVHTPNRTYYLMDPSGNAHKWCRKIQEVWRQRYQSHPDAAVQ
In the case of B2, the “phosphorylation of GST-p70 S6K-T2 by GST-PDK1 in vitro (32P autoradiography), 4 µM peptide” value [3] is reported as “poorly inhibited the phosphorylation of GST-p70 S6K-T2 by PDK1 slightly”, the relative phosphorylation of the substrate by PDK1 in vitro (PKB[S473D] = 100), +PIFtide [4] is reported as 85.4 relative and the relative phosphorylation of the substrate by PDK1 in vitro (this value taken as 100; 2.6 mol/mol PDK1/min), no PIFtide [4] is reported as 100 relative. For the same protein, the “phosphorylation of GST-p70 S6K-T2 (wt and 252A) at Thr412 by wt-GST-PDK1, T412-P immunoblot” value [5] was “band in every lane without PIF peptide, no band in the neighbouring lane with PIF peptide (4 µM), for PDK1 from 293 cells and from E. coli”, the “phosphorylation of GST-p70 S6K-T2 at Thr412 by GST-PDK1 (T412-P immunoblot), 4 µM peptide” value [5] was “The 24 residue PIF peptide prevented PDK1 from phosphorylating the p70 S6K at Thr412” and the “phosphorylation of GST-p70 S6K-T2 by GST-PDK1 in vitro (32P autoradiography), 4 µM peptide” value [6] was “prevented PDK1 from phosphorylating GST-p70 S6K-T2”. The relative phosphorylation of the substrate by PDK1 in vitro (PKB[S473D] = 100), +PIFtide [7] was 19.3 relative, the relative phosphorylation of the substrate by PDK1 in vitro (PKB[S473D] = 100), no PIFtide [7] was 28 relative and the relative phosphorylation of the substrate by PDK1 in vitro (PKB[S473D] = 100), +PIFtide [8] was 3.8 relative. For the same protein, the relative phosphorylation of the substrate by PDK1 in vitro (PKB[S473D] = 100), no PIFtide [8] was 8 relative, the relative phosphorylation of the substrate by PDK1 in vitro (32P, SDS-PAGE, PhosphoImager; PKB[S473D] with PtdIns(3,4,5)P3 = 100), no PIFtide [9] was 10.4 relative and the relative phosphorylation of the substrate by PDK1 in vitro (PKB[S473D] = 100), +PIFtide [9] was 0.58 relative. For the same protein, the relative phosphorylation of the substrate by PDK1 in vitro (PKB[S473D] = 100), +PIFtide [10] was 9.6 relative, the relative phosphorylation of the substrate by PDK1 in vitro (PKB[S473D] = 100), no PIFtide [10] was 71 relative and the relative phosphorylation of the substrate by PDK1 in vitro (PKB[S473D] = 100), +PIFtide [11] was 7.4 relative. The relative phosphorylation of the substrate by PDK1 in vitro (PKB[S473D] = 100), no PIFtide [11] was 54 relative, the “rate of phosphorylation by PDK1 in vitro, against the wild type enzyme” value [12] was “PKB[F472A] was phosphorylated at a similar rate to the wild type PKB” and the relative phosphorylation of the substrate by PDK1 in vitro (PKB[S473D] = 100), +PIFtide [13] was 0.2 relative. For the same protein, the relative phosphorylation of the substrate by PDK1 in vitro (PKB[S473D] = 100), no PIFtide [13] was 0.9 relative, the “phosphorylation of GST-p70 S6K-T2 by GST-PDK1 in vitro (32P autoradiography), 1.5 µM” value [14] was “poorly inhibited the phosphorylation of GST-p70 S6K-T2 by PDK1 slightly” and the relative phosphorylation of the substrate by PDK1 in vitro (PKB[S473D] = 100), +PIFtide [15] was 0.25 relative. It also gave a relative phosphorylation of the substrate by PDK1 in vitro (PKB[S473D] = 100), no PIFtide [15] of 0.4 relative.

B3: GST-PDK1[L155E] (protein)
chain: MARTTSQLYDAVPIQSSVVLCSCPSPSMVRTQTESSTPPGIPGGSRQGPAMDGTAAEPRPGAGSLQHAQPPPQPRKKRPEDFKFGKILGEGSFSTVVLARELATSREYAIKILEKRHIIKENKVPYVTRERDVMSRLDHPFFVKLYFTFQDDEKEYFGLSYAKNGELLKYIRKIGSFDETCTRFYTAEIVSALEYLHGKGIIHRDLKPENILLNEDMHIQITDFGTAKVLSPESKQARANSFVGTAQYVSPELLTEKSACKSSDLWALGCIIYQLVAGLPPFRAGNEYLIFQKIIKLEYDFPEKFFPKARDLVEKLLVLDATKRLGCEEMEGYGPLKAHPFFESVTWENLHQQTPPKLTAYLPAMSEDDEDCYGNYDNLLSQFGCMQVSSSSSSHSLSASDTGLPQRSGSNIEQYIHDLDSNSFELDLQFSEDEKRLLLEKQAGGNPWHQFVENNLILKMGPVDKRKGLFARRRQLLLTEGPHLYYVDPVNKVLKGEIPWSQELRPEAKNFKTFFVHTPNRTYYLMDPSGNAHKWCRKIQEVWRQRYQSHPDAAVQ
B3 showed a relative phosphorylation of the substrate by PDK1-L155E in vitro (PKB[S473D] with wild type PDK1 = 100), +PIFtide [4] of 162 relative, a relative phosphorylation of the substrate by PDK1-L155E in vitro (PKB[S473D] with wild type PDK1 = 100), no PIFtide [4] of 178 relative and a relative phosphorylation of the substrate by PDK1-L155E in vitro (PKB[S473D] with wild type PDK1 = 100), +PIFtide [7] of 35 relative. For the same protein, the relative phosphorylation of the substrate by PDK1-L155E in vitro (PKB[S473D] with wild type PDK1 = 100), no PIFtide [7] was 35 relative, the relative phosphorylation of the substrate by PDK1-L155E in vitro (PKB[S473D] with wild type PDK1 = 100), +PIFtide [8] was 2.4 relative and the relative phosphorylation of the substrate by PDK1-L155E in vitro (PKB[S473D] with wild type PDK1 = 100), no PIFtide [8] was 3.3 relative. For the same protein, the relative phosphorylation of the substrate by PDK1-L155E in vitro (PKB[S473D] with wild type PDK1 = 100), +PIFtide [9] was 0.27 relative, the relative phosphorylation of the substrate by PDK1-L155E in vitro (PKB[S473D] with wild type PDK1 = 100), no PIFtide [9] was 0.6 relative and the relative phosphorylation of the substrate by PDK1-L155E in vitro (PKB[S473D] with wild type PDK1 = 100), +PIFtide [10] was 3.4 relative. It also gave a relative phosphorylation of the substrate by PDK1-L155E in vitro (PKB[S473D] with wild type PDK1 = 100), no PIFtide [10] of 3.5 relative, a relative phosphorylation of the substrate by PDK1-L155E in vitro (PKB[S473D] with wild type PDK1 = 100), +PIFtide [11] of 0.108 relative and a relative phosphorylation of the substrate by PDK1-L155E in vitro (PKB[S473D] with wild type PDK1 = 100), no PIFtide [11] of 0.5 relative. For the same protein, the relative phosphorylation of the substrate by PDK1-L155E in vitro (PKB[S473D] with wild type PDK1 = 100), +PIFtide [13] was 0.15 relative, the relative phosphorylation of the substrate by PDK1-L155E in vitro (PKB[S473D] with wild type PDK1 = 100), no PIFtide [13] was 0.18 relative and the relative phosphorylation of the substrate by PDK1-L155E in vitro (PKB[S473D] with wild type PDK1 = 100), +PIFtide [15] was 0.25 relative. For the same protein, the relative phosphorylation of the substrate by PDK1-L155E in vitro (PKB[S473D] with wild type PDK1 = 100), no PIFtide [15] was 0.23 relative.
